Test results taken from paper PMC10182306.

Target: human platelet actin (human) (UniProt P60709)
Test: co-sedimentation

Work on “α-actinin (from UniProt P12814 1-892) (natural protein)” yielded a percent of input pelleted with F-actin of 77%.
